# Measured values published in patent US20150079112A1 (SAMSUNG ELECTRONICS, published 2015).
# What was measured:
# [1] = target: T1, mutant Ang2 protein, Q418 substituted with alanine, FLAG-tagged at its N-terminal (human, UniProt O15123 19-496, limits assumed); experiment: ELISA, coated antibody 1000 nM, 250 ng FLAG-tagged mutant Ang2, anti-FLAG-HRP, OD450
# T1 sequence: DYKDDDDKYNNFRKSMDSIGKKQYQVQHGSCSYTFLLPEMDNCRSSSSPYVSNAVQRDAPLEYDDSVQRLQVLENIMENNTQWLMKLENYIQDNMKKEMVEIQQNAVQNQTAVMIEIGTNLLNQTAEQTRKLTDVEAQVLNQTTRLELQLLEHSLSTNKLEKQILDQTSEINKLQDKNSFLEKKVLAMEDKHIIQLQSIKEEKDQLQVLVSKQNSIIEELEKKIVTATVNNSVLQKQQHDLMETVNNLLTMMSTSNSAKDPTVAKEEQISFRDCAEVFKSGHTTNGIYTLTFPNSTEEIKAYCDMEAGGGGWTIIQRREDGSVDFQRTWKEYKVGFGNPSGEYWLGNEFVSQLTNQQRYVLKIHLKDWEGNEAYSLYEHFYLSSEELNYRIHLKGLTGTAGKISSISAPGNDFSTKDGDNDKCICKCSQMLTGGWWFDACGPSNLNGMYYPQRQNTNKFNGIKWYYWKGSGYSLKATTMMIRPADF
# Method: (§1) Each well of a 96-well MaxiSorp™ flat-bottom plate (Nunc) was coated with 50 ul (microliter) of 1000 nM antibody. Then, the plate was washed five times with 0.05% (v/v) Tween-20-containing PBS (PBST) and blocked with 1% (v/v) BSA-containing PBS at a room temperature for 2 hours. 250 ng of each mutant Ang2 protein obtained by substituting S417, Q418, P419, N421, I434, D448, A449, P452, Y460, N467, K468, or F469 residue of Ang2 protein tagged with a FLAG sequence ([…], Sigma) at its N-terminal with alanine was added to each well of the plate, which was then allowed to react at a room temperature for 2 hours.
# (§2) The plate was washed five times with 0.05% (v/v) Tween-20 containing PBS, reacted with an anti-FLAG antibody (SIGMA) conjugated with HRP which was diluted in 1% (v/v) BSA-containing PBS at a ratio of 1:5,000 (v/v) at a room temperature for 1 hour, and washed five times with 0.1% (v/v) Tween-20-containing PBS.
# (§3) Finally, 50 ul of TMB substrates (Cell signaling) was added to each well of the plate to induce color development at a room temperature for 3 min. and the reaction was ceased by the addition of 50 ul of Stop solution (Cell signaling) and then, OD450 values were measured on a plate reader (Molecular Devices). By comparing binding affinities with mutated Ang2 to those of unmutated Ang2, each epitope of Ang2 antibodies was identified. The thus obtained measurement results of the binding affinities (%) with mutant Ang2 against the binding affinity with the native Ang2 are shown in the following Table 8.
# [2] = target: T2, mutant Ang2 protein, Y460 substituted with alanine, FLAG-tagged at its N-terminal (human, UniProt O15123 19-496, limits assumed); experiment: as above
# T2 sequence: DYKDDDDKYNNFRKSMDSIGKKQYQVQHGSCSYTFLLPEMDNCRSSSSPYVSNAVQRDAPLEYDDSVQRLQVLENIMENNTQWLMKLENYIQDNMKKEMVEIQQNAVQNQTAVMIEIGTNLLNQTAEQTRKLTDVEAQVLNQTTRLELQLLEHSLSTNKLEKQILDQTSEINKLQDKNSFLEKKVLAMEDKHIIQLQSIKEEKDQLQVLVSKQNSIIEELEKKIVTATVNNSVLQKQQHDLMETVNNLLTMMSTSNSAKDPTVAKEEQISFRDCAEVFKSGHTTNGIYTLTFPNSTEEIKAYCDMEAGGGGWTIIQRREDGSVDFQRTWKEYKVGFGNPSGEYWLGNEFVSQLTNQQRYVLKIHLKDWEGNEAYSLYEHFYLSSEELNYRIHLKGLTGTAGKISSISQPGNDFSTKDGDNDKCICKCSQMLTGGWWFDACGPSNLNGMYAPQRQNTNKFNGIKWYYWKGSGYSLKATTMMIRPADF
# Method: as §1, §2, §3
# [3] = target: mutant Ang2 protein, A449 substituted with alanine, FLAG-tagged at its N-terminal (human) (UniProt O15123); experiment: as above
# [4] = target: T3, Ang2 protein (R&D systems) (human, UniProt O15123 19-496); experiment: cell-based or functional assay
# T3 sequence: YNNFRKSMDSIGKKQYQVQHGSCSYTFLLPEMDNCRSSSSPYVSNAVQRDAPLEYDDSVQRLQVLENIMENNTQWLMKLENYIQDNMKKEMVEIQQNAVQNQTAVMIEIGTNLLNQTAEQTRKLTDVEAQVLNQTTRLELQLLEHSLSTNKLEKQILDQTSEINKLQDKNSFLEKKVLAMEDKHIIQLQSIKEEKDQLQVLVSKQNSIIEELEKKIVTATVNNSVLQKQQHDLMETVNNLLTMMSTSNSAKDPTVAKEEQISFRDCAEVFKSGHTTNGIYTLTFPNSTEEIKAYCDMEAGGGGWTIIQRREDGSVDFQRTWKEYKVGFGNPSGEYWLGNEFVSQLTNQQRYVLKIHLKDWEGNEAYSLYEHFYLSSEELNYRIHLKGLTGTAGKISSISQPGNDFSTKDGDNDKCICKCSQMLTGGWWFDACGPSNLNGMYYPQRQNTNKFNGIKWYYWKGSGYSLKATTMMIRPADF
binder,measurement,setting,value
"SAIT-ANG2-AB-m10D6 (antibody, V domains shown, also called antibody 10D6; anti-Ang2 antibody (10D6)) VH: DVQLQESGPGLVKPSQSLSLTCTVTGYSITSDYAWNWIRQFPGNKLEWMGYINYSGNTDYNPSLKSRSSITRDTSKNQFFLQLNSVTTGDTATYYCARGNFEGAMDYWGQGTSVTVSS VL: SIVMTQTPKFLLVSAGDRVTITCKASQSVSNDVAWYQQKPGQSPKLLIYYASNRYPGVPDRFTGSGYGTDFTFTISTVQAEDLAVYFCQQDYSSPWTFGGGTKLEIK",binding affinity (%) with mutant Ang2 against the binding affinity with the native Ang2,[1],38.9%
same,binding affinity (%) with mutant Ang2 against the binding affinity with the native Ang2,[2],103%
same,binding affinity (%) with mutant Ang2 against the binding affinity with the native Ang2,[3],97.9%
same,Tie2 phosphorylation effect relative to control antibody RG,[4],~8.6 fold
same,"Tie2 phosphorylation level (pTyr/Tie2 ratio), HUVEC, 60 nM antibody with Ang2",[4],180%
